Molecular target: Flag-Lrp4-mCherry (mouse) (UniProt Q8VI56)
Experiment: flow cytometry on cells

Sequence of UniProt Q8VI56 (Q8VI56 21-1905): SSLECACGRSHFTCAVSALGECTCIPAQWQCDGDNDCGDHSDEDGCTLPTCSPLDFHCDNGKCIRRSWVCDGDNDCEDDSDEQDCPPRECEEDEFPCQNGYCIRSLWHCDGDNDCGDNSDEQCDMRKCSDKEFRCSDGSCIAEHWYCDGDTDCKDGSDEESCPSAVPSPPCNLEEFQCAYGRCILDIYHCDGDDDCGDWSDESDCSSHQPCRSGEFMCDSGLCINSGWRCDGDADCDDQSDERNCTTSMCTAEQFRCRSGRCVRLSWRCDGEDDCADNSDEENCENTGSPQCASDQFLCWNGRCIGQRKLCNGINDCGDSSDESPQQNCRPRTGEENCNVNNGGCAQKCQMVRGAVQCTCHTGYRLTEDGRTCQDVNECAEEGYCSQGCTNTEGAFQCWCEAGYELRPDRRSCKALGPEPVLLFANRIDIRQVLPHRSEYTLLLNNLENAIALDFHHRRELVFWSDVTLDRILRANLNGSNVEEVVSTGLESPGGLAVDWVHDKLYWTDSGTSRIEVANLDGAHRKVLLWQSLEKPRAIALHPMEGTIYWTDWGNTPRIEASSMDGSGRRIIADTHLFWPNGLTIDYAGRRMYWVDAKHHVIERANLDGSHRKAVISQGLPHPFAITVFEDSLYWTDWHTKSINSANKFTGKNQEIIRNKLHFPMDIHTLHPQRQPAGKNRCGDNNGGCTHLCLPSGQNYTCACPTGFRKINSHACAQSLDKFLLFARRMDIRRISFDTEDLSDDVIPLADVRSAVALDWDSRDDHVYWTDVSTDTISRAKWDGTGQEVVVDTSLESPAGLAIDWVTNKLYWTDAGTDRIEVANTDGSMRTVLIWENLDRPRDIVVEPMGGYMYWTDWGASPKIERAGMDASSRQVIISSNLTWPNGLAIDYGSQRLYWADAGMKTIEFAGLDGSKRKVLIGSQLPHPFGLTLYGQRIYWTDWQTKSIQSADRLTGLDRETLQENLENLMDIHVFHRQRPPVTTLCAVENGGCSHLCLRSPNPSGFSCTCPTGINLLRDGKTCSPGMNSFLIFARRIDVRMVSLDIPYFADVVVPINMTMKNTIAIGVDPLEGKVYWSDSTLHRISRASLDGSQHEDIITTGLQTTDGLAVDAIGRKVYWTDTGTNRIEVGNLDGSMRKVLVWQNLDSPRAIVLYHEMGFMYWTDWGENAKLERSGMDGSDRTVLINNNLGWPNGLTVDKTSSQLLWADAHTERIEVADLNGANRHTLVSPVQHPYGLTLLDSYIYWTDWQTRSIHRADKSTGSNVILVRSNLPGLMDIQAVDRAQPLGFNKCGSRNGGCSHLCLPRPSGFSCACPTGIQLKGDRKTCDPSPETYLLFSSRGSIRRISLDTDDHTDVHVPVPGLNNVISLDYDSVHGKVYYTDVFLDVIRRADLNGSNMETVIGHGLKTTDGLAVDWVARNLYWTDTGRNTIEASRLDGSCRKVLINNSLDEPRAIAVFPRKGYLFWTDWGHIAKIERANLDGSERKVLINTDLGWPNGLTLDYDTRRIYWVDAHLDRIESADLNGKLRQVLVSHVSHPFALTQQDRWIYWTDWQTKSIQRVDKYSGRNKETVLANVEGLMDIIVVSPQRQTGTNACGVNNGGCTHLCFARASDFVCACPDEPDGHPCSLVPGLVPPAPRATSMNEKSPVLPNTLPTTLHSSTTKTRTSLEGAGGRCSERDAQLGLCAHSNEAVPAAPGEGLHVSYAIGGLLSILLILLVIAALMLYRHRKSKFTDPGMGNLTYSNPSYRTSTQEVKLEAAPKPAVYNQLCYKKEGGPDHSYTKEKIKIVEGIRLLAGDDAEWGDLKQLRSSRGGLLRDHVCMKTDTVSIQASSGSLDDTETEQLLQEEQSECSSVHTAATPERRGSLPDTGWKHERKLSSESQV

Substance	fold higher affinity of Agrin B8 than of Agrin B0 [fold]	EC50 [nM]	fold increase of binding with calcium against without calcium [fold]
50 kd C-terminal fragment of Agrin B0 (domain or fragment)	100	–	–
50 kd C-terminal fragment of Agrin B8 (domain or fragment)	–	6	20

— PMC2933840
